Test results from US20100215651A1 (GLENMARK PHARMACEUTICALS S A, published 2010).

T1: human CD19 (human, UniProt P15391 20-556)
T1 construct: CD19 as expressed on Raji, NALM-6 and SU-DHL-6 cells; also called CD19 antigen; B-cell surface antigen B4
T1 sequence: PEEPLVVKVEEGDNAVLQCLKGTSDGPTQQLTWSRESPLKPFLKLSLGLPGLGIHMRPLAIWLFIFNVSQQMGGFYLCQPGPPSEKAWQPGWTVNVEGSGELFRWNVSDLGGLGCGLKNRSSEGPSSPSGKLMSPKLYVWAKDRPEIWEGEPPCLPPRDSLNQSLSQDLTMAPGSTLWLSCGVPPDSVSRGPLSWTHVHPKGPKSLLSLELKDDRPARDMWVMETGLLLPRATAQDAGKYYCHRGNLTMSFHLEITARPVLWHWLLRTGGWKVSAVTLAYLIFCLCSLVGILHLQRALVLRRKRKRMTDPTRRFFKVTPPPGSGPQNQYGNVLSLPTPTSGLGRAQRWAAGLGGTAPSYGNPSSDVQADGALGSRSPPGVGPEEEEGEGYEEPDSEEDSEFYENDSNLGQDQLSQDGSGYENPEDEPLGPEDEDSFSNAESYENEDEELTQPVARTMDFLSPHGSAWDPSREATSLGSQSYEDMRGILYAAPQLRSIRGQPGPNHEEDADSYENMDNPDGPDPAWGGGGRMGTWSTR

B1: VH16-R94K/VL43 (antibody, human IgG1)
heavy: not shown
VL: DIVMTQTPSSLSASVGDRVTITCRASQDISKYLNWYQQKPGKAPKLLIYHTSRLHSGVPSRFSGSGSGTDFTLTISSLQPEDFATYYCQQGNTLPYTFGPGTKVDIKRTVAA
notes: Full-length human IgG1/kappa
B2: VH16 R94K VL43 P44I (antibody, human IgG1, V domains shown)
VH: QVQLVQSGGGVVQPGRSLRLSCAASGVSLPDYGVSWVRQAPGKGLEWVAVIWGSETTYYNSALKSRFTISRDNSKNTLYLQMNSLRAEDTAVYYCAKHYYYGGSYAMDYWGQGTLVTVSS
VL: DIVMTQTPSSLSASVGDRVTITCRASQDISKYLNWYQQKPGKAIKLLIYHTSRLHSGVPSRFSGSGSGTDFTLTISSLQPEDFATYYCQQGNTLPYTFGPGTKVDIKR
notes: Full-length human IgG1/kappa; substitutions in Kabat numbering

Assays:
human CD19 [1] = molecular target: T1, human CD19; assay: flow cytometry, Raji cells, MPF vs chimeric FMC63
Method: (§1) Binding of the CD19 humanized monoclonal antibodies by flow cytometry to Raji tumor cells (human Burkitt lymphoma, DSMZ ACC319), NALM-6 (human B cell precursor leukemia, DSMZ ACC128) and SU-DHL-6 (human B cell lymphoma, DSMZ ACC572) (all cell lines from DSMZ Braunschweig, Deutschland) was assessed. Cells were incubated with serial dilutions of each humanized monoclonal antibody. An irrelevant human IgG1 was used as a negative control. The cells were washed and detected by a phycoerythrin-labeled (PE) anti-human secondary antibody (eBioscience, CA, USA) and analyzed by flow cytometry. […] From MFI versus antibody concentration curves, Mid-Point Fluorescence (MPF) value for each anti-CD19 humanized antibody was calculated using the software GraphPad Prism 5 (CA, USA).

human CD19 [2] = molecular target: T1, human CD19; assay: flow cytometry, Raji cells, MPF vs chimeric FMC63; remark: listed apart in the source
Method: as §1

human CD19 [3] = molecular target: T1, human CD19; assay: flow cytometry, NALM-6 cells, MPF vs chimeric FMC63
Method: as §1

human CD19 [4] = molecular target: T1, human CD19; assay: flow cytometry, Raji cells, MPF vs chimeric FMC63; remark: listed apart in the source
human CD19 [5] = molecular target: T1, human CD19; assay: competition with 0.2 nM Eu3+-labelled chimeric FMC63 on Raji cells
Method: To that aim, 100 μl volumes of Raji cells in RPMI-1640 medium (Chemie Brunschwig AG, PAA, Basel, Switzerland) supplemented with 10% fetal bovine serum (FBS, Chemie Brunschwig AG, PAA, Basel, Switzerland), 2 mM ultraglutamine 1 (Lonza, Verviers, Belgium) and 1% penicillin/streptomycin (Chemie Brunschwig AG, PAA, Basel, Switzerland), prepared at concentration of 1×10⁶ cells/ml were seeded in a U-bottomed 96-well plate. […] The antibody dilutions were cooled down to 4° C. before 100 μl was taken and added on the Raji cells. […] Cells were incubated with the antibodies for 15 minutes on ice. After reaching equilibrium, the cells were centrifuged at 1300 RPM for 2 minutes and supernatant was discarded. Cell pellets were washed twice with 200 μl of cold binding buffer PBS-2.5% FBS-0.05% NaN₃, and resuspended into 100 μl of Delfia solution. Cell bound Eu³+-FMC63 was measured with time resolved fluorescence as described above. The amount of Eu³+-FMC63 (fmole) per well was determined and plotted versus the total amount of unlabelled antibody.

human CD19 [6] = molecular target: T1, human CD19; assay: flow cytometry on SU-DHL-6 cells, PE-labelled anti-human secondary antibody, MFI against antibody concentration
Method: as §1

human CD19 [7] = molecular target: T1, human CD19; assay: Scatchard analysis, Eu3+-labelled antibody on Raji cells
Method: (§2) Raji cells as described in Example 2 were grown in RPMI-1640 medium (Chemie Brunschwig AG, PAA, Basel, Switzerland) supplemented with 10% fetal bovine serum (FBS, Chemie Brunschwig AG, PAA, Basel, Switzerland), 2 mM ultraglutamine 1 (Lonza, Verviers, Belgium) and 1% penicillin/streptomycin (Chemie Brunschwig AG, PAA, Basel, Switzerland). The cells were washed with the same culture medium and adjusted to a final concentration of 1×10⁶ cells/ml. A 100 μl volume of Raji cells was seeded in U-bottomed 96-well plate. […] Cells were incubated with Eu³⁺-antibody for 15 minutes on ice to reach equilibrium. The amount of free Eu³⁺-labelled antibodies were measured by transferring aliquots of cell-free supernatant (volumes were empirically adjusted depending on antibody concentration; cells were spun at 1300 RPM for 2 min) into a fresh plate containing 100 μl of Delfia solution (PerkinElmer, MA, USA; an enhancer of Eu³⁺ fluorescence). To ensure complete removal of the supernatant, cells were spin down once more at 1300 RPM for 2 minutes. After the second centrifugation, the supernatant was discarded, and cells were washed twice with 200 μl of cold binding buffer (PBS-2.5% FBS-0.05% NaN₃). Cell pellets were resuspended into 100 μl of Delfia solution.

human CD19 [8] = molecular target: T1, human CD19; assay: Scatchard analysis (Bound/Free against Bound) of europium-labelled antibody on Raji cells, time resolved fluorescence
Method: as §2

| Binder | relative MPF (% of chimeric FMC63) (human CD19 [1]) [%] | relative MPF (% of chimeric FMC63) (human CD19 [2]) [%] | relative MPF (% of chimeric FMC63) (human CD19 [3]) [%] | relative MPF (% of chimeric FMC63) (human CD19 [4]) [%] | Ki (human CD19 [5]) [nM] | EC50 (read off the curve) (human CD19 [6]) [µg/mL] | Kd (human CD19 [7]) [nM] | Kd (human CD19 [8]) [nM] |
| --- | --- | --- | --- | --- | --- | --- | --- | --- |
| B1 | 26.8 | 26.8 | 14.4 | 27.1 | 7.6 | ~0.2 | 47 |  |
| B2 |  |  |  |  |  | ~0.09 |  | 19 |
